Reference: the nanobody polyreactivity screen of Harvey et al. (2022)

Test: yeast display, Sf9 membrane polyspecificity reagent, FACS + sequencing; frameworks hold sequencing errors
Summary of the method: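 Nanobodies came from a synthetic yeast display library in Saccharomyces cerevisiae BJ5465, induced with galactose for 36–48 hours and stained for 1 hour at 4 °C with 10% biotinylated, detergent-solubilized Sf9 membrane reagent. Cells were enriched on streptavidin microbeads and then FACS-sorted, with low and high (top ~1%) gates set on anti-HA fluorescence for expression and streptavidin fluorescence for reagent binding. Each polyreactivity label reflects the gate a clone came from. Genes were amplified by colony PCR, sequenced by MiSeq 2 × 250 and filtered by CDR length.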

Row | Sequence | polyreactivity (PSR sort gate)
1 | QVQLQESGGGLVQEGGSLRLSCAASGNISPPADMGWYRQAPGKERELVASIGTGGTTNYADSVKGRFTISRDNAKNTVYLQMNSLQPDDTAVYYCAAVRYEYNPYDYWGQGTQVTVSS | low polyreactivity
2 | QVQLQESGGGLVQEGGSLRLSCAASGTISQEDWMGWYRQAPGKEREFVAAIGLGSNTNYADSLKGRFTISRDNAKNTVYLQMNSLKPEDTAVYYCAVSVWQYSDHVYRGQGTQVTVSS | low polyreactivity
3 | QVQLQESGGGLVQVGGSQRLSCAASGNIFYNYAMGWYRHAQGKEREFDATINHGTSINYADSVKGRFTISRDNAKNTVYLQMNSLKPEDTAVYYCAADLSWTDNLFYWGQGTQVTVIS | low polyreactivity
4 | QVQLQESGGGLVQVGGSQRLSCAASGNIFYNYAMGWYRHAQGKEREFDATINHGTSINYADSVKGRFTISRDNAKNTVYLQMNSLKPEDTAVYYCAARVVRYGYKYYYWGQGTQVTLSS | low polyreactivity
5 | QVQLQESGGGMVQAGGSLRLSCAASGSIFADVQMGWYRQAPGKVRELVASINFRGTTTYYADSVKGRFTISRDNAKNTVYLQMSSLKPEDTEVYYCAVGRSEGGDFAYWGQGTHVTVSS | low polyreactivity
6 | QVQLQESGGGMVQAGGSLRLSCAASGYISWADYKGWYRQAPGKERELVAGIGYGSTTYYADSVKGRFTISRDNAINTAYLQMNSLKPEDTAVYYCAVGWYRDTAYKYWGHGTQVTVSS | low polyreactivity
7 | QVQLQESGGGPVLAGCSLRLSCAASGTIFVRLDMGWYRQAPGKEREFVATIGSGSSTYYADSVKGSFTISRDNVKNTVYLQMNSLKQEDTAVYYCAVSAAEQSRHYYWDQGTQVTVSS | low polyreactivity
8 | QVQLQESGGGPVLAGGRLRLSCAASGTIFVRLDMGWYRQAPGKEREFVATIGSGSSTYYADSVKGSFTISRDNVKNTVFLQMNTLIPEDTAVYYCAVSAAEQSRHYYWDQGTQVTVSS | low polyreactivity
9 | QVQLQESGGGPVLAGGSLRLSCEASGTIFVRLDMGWYRQAPGKEREFVATIGSGSSTYYADSVKGSFTISRDNVKNTVYLQMNSLKPEETAVYYCAVSAAEQSRHYYWDQGTQVTVSS | low polyreactivity
10 | QVQLQESGGGQVLAGGSLRLSCAASGSISAQAYMGWDRQAPGKEREHVAGINYGDNTNYADSVKGRFTISRDNEHRVSADEQPVSGRYRGVLLRGFLELFYYYIYWGQGTQVNVSS | high polyreactivity
11 | QVQLQESGGGQVQAGGSLRLSCAASGTIFLYAFKGWYRQAPGKERELVAAIDVGTTTNYADSVKGRFTISRDNAKNTVYLQMNSLKPEDTAVYYCAANLGYLDDLGYWGQGTQVTVSS | low polyreactivity
12 | QVQLQESGGGQVQAGGSLRLSCAASGTIFLYAFMGWYRQAPGKERELVAAIDVGTTTNYADSVKGRFTISRDNAKNTGYLQMNSLKPEDTAVYYCAANLGYLEDLGYWGQGTQVTVSS | low polyreactivity
13 | QVQLQESGGGQVQAGGSLRLSCAASGYISTHYFMGWYRQAPGKDREFVAGISNGSITNYADSVKGRFTISRDNARNTVYLQMNSLKPEDTAVYYGAAYEWTYVRFGYWGQGTQVTVSG | high polyreactivity
14 | QVQLQESGGGQVQAGGTITLGYDMGWYRQAPGKEREFVAGIDTGAITYYADSVKGRFTNSRDNAKNTVYLQMNSLKPEDTAVYYCAAIQTHTYAHSYWGQGTQVTVSS | high polyreactivity
15 | QVQLQESGGGVQAGGSLRLSCAASGSISAPILMGWYRQAPGKERELVAGIGGGANSYYADSVKGRFTVSRDNAKYTVYLQMNSLKPEATAVYYCAAGDYYWTNFGYWGQGTQVTASS | high polyreactivity
16 | QVQLQESGGRLVQAGGSLRMSCAASGTIFSEANMGWYRQAPGKERELVATIGQGSTTNYADSVKGLFTISRDNAKNTVYLQMNSLKPEETAVYYCAVVTVDPVGFVYWGQGTQVTVSS | low polyreactivity
17 | QVQLQESGGRQVQAGGSLRLSCAASGSNSYASGMGWYRQAPRKEREFVARIDPGAITNYADSVKGRFTISHDNAQNTVYLQMKSLKPEDNAVYYCAARVSTTDSRRILRKYLYYVHFDYWGQGTQLTVSS | high polyreactivity
18 | QVQLQESGGSLVQAGGSLRLSCAASGNILVLPHGLVSPGAERELVATITGGSITYYADSVKGRFTISRDNAKNTVYLQMNSLKPGDTDVYYCAVINIYHRPHPYWGQGTLVTVSS | high polyreactivity
